Patent US10017560

Tests used:
[1] = molecular target: Tomato Leaf Curl Sudan Virus (ToLCSDV) purified viral particles (Tomato Leaf Curl Sudan Virus); assay: SPR single-cycle kinetics, ToLCSDV captured at 185 RU
[2] = molecular target: Tomato Leaf Curl Sudan Virus (ToLCSDV) purified viral particles (Tomato Leaf Curl Sudan Virus)
[3] = molecular target: Tomato Leaf Curl Sudan Virus (ToLCSDV) purified viral particles (Tomato Leaf Curl Sudan Virus); assay: SPR single-cycle kinetics, ToLCSDV captured at 310 RU
[4] = molecular target: Tomato Leaf Curl Sudan Virus (ToLCSDV) purified viral particles (Tomato Leaf Curl Sudan Virus); assay: SPR single-cycle kinetics, ToLCSDV captured at 405 RU

B1: Nb-To2 (VHH)
VHH: QVQLQESGGGSVQAGGSLRLSCVASGDTLRLCRMGWYRQAPGKGRELVSSMEIDGTTNYADSVKGRFTISQGDNRNTMYLQMNSLKPEDTAMYYCKMEGGYGGNCRLAIYNYWGQGTQVTVSS
[1]
  Kd: 292 pM
  koff: 0.00135 s⁻¹
  kon: 4.65e+06 M⁻¹ s⁻¹
[2]
  A1 (% ToLCSDV Binding): -0.842
  A2 (% ToLCSDV Binding): 101
  EC20 (dilution of the NbTo2 sample): 0.00459
  EC80 (dilution of the NbTo2 sample): 0.000613
  LOGx0 (log(dilution NbTo2)): -2.78
  p: -1.38
  span (% ToLCSDV Binding): 102
[3]
  Kd: 374 pM
  koff: 0.00151 s⁻¹
  kon: 4.05e+06 M⁻¹ s⁻¹
[4]
  Kd: 432 pM
  koff: 0.00161 s⁻¹
  kon: 3.72e+06 M⁻¹ s⁻¹
